Consider 15 molecules from patent US20220226469A1.

Changes are numbered by the printed parent chain.

The target of the test is Fc tagged human SIRPα (ACRO #SIG-H5251, genotype variant 1) (human) (UniProt P78324). Briefly: solid-phase ELISA on plate-coated Fc tagged human SIRPα; apparent Kd.
Sequence of Fc tagged human SIRPα (ACRO #SIG-H5251, genotype variant 1) (human) (P78324 31-370, change not shown): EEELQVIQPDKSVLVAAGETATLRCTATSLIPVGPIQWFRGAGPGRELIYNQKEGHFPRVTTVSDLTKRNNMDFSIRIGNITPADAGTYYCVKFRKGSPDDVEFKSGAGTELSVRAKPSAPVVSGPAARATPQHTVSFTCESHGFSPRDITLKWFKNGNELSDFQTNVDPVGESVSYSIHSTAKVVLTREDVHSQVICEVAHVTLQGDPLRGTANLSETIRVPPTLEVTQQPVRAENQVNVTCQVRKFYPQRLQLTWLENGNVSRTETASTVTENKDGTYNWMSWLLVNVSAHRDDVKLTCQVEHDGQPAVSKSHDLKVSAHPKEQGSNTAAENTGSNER

B1: SIRP1 (antibody, mouse IgG1, kappa, V domains shown)
VH: QVQLQQSGAELMKPGASVKISCKATGYSFTKYWIEWVKQRPGHGLEWIGEILPGSVITNYNEKFKGKATFTADTSSNTVYMQLSSLTSEDSAVYYCTKWGLYDSDDGVDYWGQGTTLTVSS
VL: ENVLTQSPAIMSASLGEKVTMSCRASSGVNYMYWYQQKSDASPKLLIYYTSILAPGVPARFSGSGSGNSYSLTISSMEGEDAATYYCQQFTSSPYTFGGGTKLEIKR
Regarding B1, the Kd amounted to 0.039 nM.

B2: SIRP5 (antibody, V domains shown)
VH: QVQLQQSAAELARPGASVKMSCKASGYTFTSYTMHWVKQRPGQGLEWIGYINPTIGYTEYNQKFKDKTTLTADKSSSTAYMQLSSLTSEDSAVYYCVRLVITSVLGRAMDYWGQGTSVTVSS
VL: QIVLTQSPALMSASPGEKVTMTCSASSSVSYMYWFQQKPRSSPKPWIYLTSNLASGVPARFSGSGSGTSYSLTISSMEAEDAATYYCQQWSGNPFTFGSGTKLEIK
With B2, the Kd amounted to 0.065 nM.

B3: SIRP9 (antibody, V domains shown)
VH: EVQLQESGAELVRPGASVKLSCKALGYTFTDYEIHWVKETPVYGLEWIGDIHPGSGGTANNQKFKGKATLTADKSSNTAYMELSSLTSEDSAVYYCTRAVSGYYAMDYWGQGTSVTVSS
VL: DIQMTQSSSSFSGSLGDRLTINCKASEDIYDRVAWYQQKPGNAPRLLISGTASLETGVLSRFSGSGSGKDYTLSINGLQAEDVATYYCQQYWTTPWTFGGGTKLEIK
Consider B3, for which the Kd is 0.583 nM.

B4: SIRP2 (antibody, mouse IgG1, kappa, V domains shown)
VH: EVKLVESGGGLVQPGGSLKLSCAASGFSFSGCTMSWIRQTPERRLEWVAYISNGGDITYYPDTVKGRFTISRDNAKNSLYLQMSSLKSEDTAMYYCARLDGYYYAMDFWGQGTSVTVSS
VL: DILLTQSPAILSVSPGERVSFSCRASQSIGTSIHWYQQRTNGSPRLLIKYGSESISGIPSRFSGSGSGTDFTLSINSVESEDIADYYCQQSNTWPLTFGDGTKLELKR
As to B4, the Kd was determined as 0.182 nM.

B5: SIRP8 (antibody, V domains shown)
VH: EVQLQESGGGLVKPGGSLKLSCAASGFTLSTYTMSWVRQTPEKRLEWVAIITSGDTYTYYPDSVKGRFTISRDNAKNTLYLQMSSLKSEDTGMYYCTRDRPLFHWGQGTTLTVST
VL: QIVLTQSPAIMSASPGEKVTMTCSASSSVSYMYWYQQKPGSSPRLLIYDTSNLASGVPVRFSGSGSGTSYSLTISRMEAEDAATYYCQQWSSFPWTFGGGTKLEIK
As for B5, the Kd was found to be 0.057 nM.

B6: SIRP23 (antibody, human IgG4 S228P, kappa, V domains shown)
VH: EVQLQQSGPDLVKPGASVKISCKASGYSFTDYFLNWVKQSHGKSLEWIGRINPYNGDSFINQNFRDKATLTVDKSSTTAHMDLLSLTSEDSAIYYCGRGGYDGYFIAYFDYWGQGSLVTVSA
VL: DIKMTQSPSSMYASLGQRVTITCKASQDINSHLSWFQEKPGKSPKTLIYRANRLADGVPSRFSGSGSGQDYFLTISSLEYEDVGIYYCLQYDEFPYTFGGGTKLEIKR
Consider B6, for which the Kd was 0.164 nM.

B7: SIRP4 (antibody, V domains shown)
VH: B6 VH
VL: DIKLTQSQSSMYSSLGQRVTITCKASQDINSHLSWFQEKPGKSPKTLIYRANRLADGVPSRFSGSGSGQDYFLTISSLEYEDVGIYYCLQYDEFPYTFGGGTKLEIK
For B7, the Kd was found to be 0.161 nM.

B8: SIRP6 (antibody, V domains shown)
VH: QIQLVQSGPELKKPGETVKISCKASGYTFTDYGVNWVKQGPGKDLQWMGWVNTNTRESTYVEDFKGRFAFSLETSASTAYLQINNLKNEDSSTYFCARGAYDAYYYYYGMDYWGQGTSVTVSS
VL: DIQMTQSPASLSASVGETVTITCRASENIYSYLTWYKQKQGKSPQLLVYNAKTLAEGVPSRFSGSGSGTQFSLKINSLQPEDFGSYYCQHHYGSPRTFGGGTKLEIK
For the molecule B8, the Kd came to 0.131 nM.

B9: SIRP10 (antibody, V domains shown)
VH: EVQLQESGAELVRPGTSVKMSCKAAGYTFSNYLIGWIKQRPGHGLEWIGDIYPGDNNTNYNEKFRVKATLTADTSSNTAYMHLTSLTSEDSAIYYCAGGTDYDGFANWGQGTLVTVSA
VL: ENVLTQSPAIMSASLGEKVTMSCRASSSVNYMYWYQQKSDASPKLWIYYTSKLAPGVPARFSGSGSGNSYSLTISSMEGEDAATYYCQQFTSSPFTFGSGTKLEIK
Take B9: the Kd was greater than 10 nM.

B10: SIRP7 (antibody, V domains shown)
VH: EVQLQQSGPELVKPGASVKMSCRASGYTFSTYVMHWIKHRPGQGLEWIGYINPNNDGPNYNEKFKGKATLTSDISSSTAYMELSSLTSEDSAVYFCSRWDSYNSAAGFAYWGHGTLVTVSA
VL: EIVLTQSPTTMAASPGEKITIICSASSSISSNFLHWYQQKPGFSPRFLIYRTSILASGVPTRFSGSGSGTSYSLTIDTMEAEDVATYYCQQGSGLPLTFGSGTKLEIK
Turning to B10, the Kd was 0.197 nM.

B11: SIRP3 (antibody, mouse IgG1, kappa, V domains shown)
VH: EVQLQQSGPEVVKPGASVKMSCKASGYTFTSYVMHWVKQKPGQGLEWIGYINPYNDGPKYNEKFKGKATLTSDKSSSTAYMELSSLTSEDSAVYFCARWDYFNSASGFAFWGQGTLVTVSA
VL: EIVLTQSPTTMAASPGEKITIICSASSIIGSDFLHWYQQRPGFSPKFLIYRTSILASGVPTRFTGSGSGTSYSLTIGTMEAEDVATYYCQQGSGLPLTFGSGTKLEMKR
On to B11, for which the Kd was 0.289 nM.

B12: SIRP12 (antibody, human IgG4 S228P, kappa, V domains shown)
VH: QVQLVQSGAEVKKPGASVKVSCKASGYSFTDYFLNWVRQAPGQGLEWMGRINPYNGDSFINQNFRDRVTMTRDTSTSTVYMELSSLRSEDTAVYYCARGGYDGYFIAYFDYWGAGTTVTVSS
VL: DIQMTQSPSSLSASVGDRVTITCKASQDINSHLSWYQQKPGKAPKLLIYRANRLATGVPSRFSGSGSGTDFTFTISSLEYEDIATYYCLQYDEFPYTFGGGTKLEIKR
For the molecule B12, the Kd is 0.165 nM.

B13: SIRP21 (antibody, human IgG4 S228P, kappa, V domains shown)
VH: B12 VH with R72V
VL: B12 VL
Regarding B13, the Kd is 0.274 nM.

B14: SIRP15 (antibody, human IgG4 S228P, kappa, V domains shown)
VH: B12 VH with A16S, M70I, R72A, T74K, V79A
VL: B12 VL
As to B14, the Kd is 0.608 nM.

B15: SIRP18 (antibody, human IgG4 S228P, kappa, V domains shown)
VH: EVQLVQSGAEVKKPGESLKISCKGSGYSFTDYFLNWVRQMPGKGLEWMGRINPYNGDSFINQNFRDQVTISADKSISTAYLQWSSLKASDTAMYYCARGGYDGYFIAYFDYWGAGTTVTVSS
VL: B12 VL
With B15, the Kd came out at 0.364 nM.
